This assay concerns the target pyruvate kinase isoform M2 (PKM2) (mouse (endogenous in Th17 cells)) (UniProt P52480).

Sequence of pyruvate kinase isoform M2 (PKM2), P52480 1-531 (enzyme; other documents disagree on this pair) (P52480 whole entry, canonical isoform): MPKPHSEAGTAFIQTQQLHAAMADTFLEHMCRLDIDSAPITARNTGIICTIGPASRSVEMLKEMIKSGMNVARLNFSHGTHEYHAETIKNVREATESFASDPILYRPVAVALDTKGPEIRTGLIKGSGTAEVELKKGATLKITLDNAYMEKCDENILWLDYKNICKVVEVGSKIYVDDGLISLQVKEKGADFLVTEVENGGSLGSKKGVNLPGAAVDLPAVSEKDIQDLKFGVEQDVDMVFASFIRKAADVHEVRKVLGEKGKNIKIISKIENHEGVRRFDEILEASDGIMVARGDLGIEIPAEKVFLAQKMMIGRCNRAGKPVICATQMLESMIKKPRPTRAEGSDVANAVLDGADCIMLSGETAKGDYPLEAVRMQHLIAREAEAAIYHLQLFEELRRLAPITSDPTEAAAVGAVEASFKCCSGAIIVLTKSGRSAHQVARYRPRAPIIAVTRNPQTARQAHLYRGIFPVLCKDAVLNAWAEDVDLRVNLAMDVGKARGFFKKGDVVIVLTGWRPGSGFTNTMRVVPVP

As a reminder, the stoichiometry N is the number of molecules, sites or subunits per partner or assembly. In turn, “pyruvate kinase isoform M2 (PKM2), P52480 1-531 (enzyme; other documents disagree on this pair)” registered a stoichiometry N of 4.

Source of the values: article PMC10175746.
